Data published in patent US20130230517A1.

Target: Purified recombinant HuFCRN/B2MG, biotinylated (human) (UniProt P55899)
Test: BLI (ForteBio Octet); biotinylated HuFCRN/B2MG on SA biosensors

- Kd: 69.7 nM
Substance: RITUXAN (Genentech), non-fused anti-CD20Ab (antibody)
